Values quoted from earlier work in paper PMC11121562.
pKd: −log10 of the molar value.

Target: Cyclin C (Homo sapiens) (UniProt P24863)
Chain of UniProt P24863 (P24863 whole entry): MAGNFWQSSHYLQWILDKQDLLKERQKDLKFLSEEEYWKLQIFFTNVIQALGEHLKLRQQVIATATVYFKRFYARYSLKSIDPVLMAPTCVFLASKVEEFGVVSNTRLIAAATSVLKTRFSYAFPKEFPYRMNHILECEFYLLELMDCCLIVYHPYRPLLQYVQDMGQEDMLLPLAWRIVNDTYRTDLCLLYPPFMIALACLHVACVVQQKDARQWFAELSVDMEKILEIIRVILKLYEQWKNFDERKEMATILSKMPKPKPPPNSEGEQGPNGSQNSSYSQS

For CDK8 (from UniProt P49336), the pKd is listed as 8.15.
